Biological target: tPA (Homo sapiens, UniProt P00750)
Experiment: Plasminogen-activation assay (tPA activation, S-2251)
Type: biochemical
Conditions: β2GPI preparations, 100 μg ml^−1
Protocol: Plasmin (Pls) activity was assayed as described^16. Peptides and proteins that were tested for their stimulatory ability were regularly used at 100 μg ml^−1. […] Chromogenic substrate S-2251 (Chromogenix, Instrumentation Laboratory SpA, Milano, Italy) was used to measure Pls activity. Conversion of zymogen factor XII (#233490, Calbiochem, EMD Biosciences, Inc., San Diego, Calif.) to proteolytically active factor XII (factor XIIa) was assayed by measurement of the conversion of chromogenic substrate Chromozym-PK (Roche Diagnostics, Almere, The Netherlands) by kallikrein. Chromozym-PK was used at a concentration of 0.3 mM. […] The conversion of Chromozym-PK was recorded kinetically at 37° C. for at least 60 minutes. […]
Formulated protein therapeutics were obtained from the local hospital pharmacy and were used as supplied by the manufacturers. […] Enhancement in fluorescence of ThT and Congo red was measured with all formulated protein therapeutics. […]
To prepare structurally altered ovalbumin (OVA) with amyloid cross-β structures, purified OVA (Sigma, A-7641, lot 071k7094) was heated to 85° C. […] Native OVA (nOVA) and heat-denatured OVA (dOVA) were tested in the ThT fluorescence assay and in the Plg-activation assay. In the fluorescence assay and in the Plg-activation assay, 25 and 100 μg ml^−1 nOVA and dOVA were tested, respectively. […]

Sequence of tPA (P00750 36-562): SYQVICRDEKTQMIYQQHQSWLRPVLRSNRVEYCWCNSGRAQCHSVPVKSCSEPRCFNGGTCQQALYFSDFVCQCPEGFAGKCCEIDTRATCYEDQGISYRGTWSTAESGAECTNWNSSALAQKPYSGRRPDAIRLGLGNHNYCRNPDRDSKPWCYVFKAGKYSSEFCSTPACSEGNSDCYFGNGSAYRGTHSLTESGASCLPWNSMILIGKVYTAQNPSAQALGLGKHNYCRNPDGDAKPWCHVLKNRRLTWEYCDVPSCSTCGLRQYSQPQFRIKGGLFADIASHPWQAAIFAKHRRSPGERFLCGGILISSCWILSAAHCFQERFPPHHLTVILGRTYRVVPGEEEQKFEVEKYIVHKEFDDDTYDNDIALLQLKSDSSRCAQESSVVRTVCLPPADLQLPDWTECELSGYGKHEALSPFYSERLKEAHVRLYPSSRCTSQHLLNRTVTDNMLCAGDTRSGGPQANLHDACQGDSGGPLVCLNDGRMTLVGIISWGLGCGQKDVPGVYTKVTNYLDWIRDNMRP

B1: recombinant β2GPI: recombinant human β2-glycoprotein I made using insect cells (protein)
chain: GRTCPKPDDLPFSTVVPLKTFYEPGEEITYSCKPGYVSRGGMRKFICPLTGLWPINTLKCTPRVCPFAGILENGAVRYTTFEYPNTISFSCNTGFYLNGADSAKCTEEGKWSPELPVCAPIICPPPSIPTFATLRVYKPSAGNNSLYRDTAVFECLPQHAMFGNDTITCTTHGNWTKLPECREVKCPFPSRPDNGFVNYPAKPTLYYKDKATFGCHDGYSLDGPEEIECTKLGNWSAMPSCKASCKVPVKKATVVYQGERVKIQEKFKNGMLHGDKVSFFCKNKEKKCSYTEDAQCIDGTIEVPKCFKEHSSLAFWKTDASDVKPC
stimulation of tPA-mediated conversion of Plg to Pls: stimulate tPA-mediated conversion of Plg to Pls
